Reference: paper PMC3144404

Biological target: actin, endogenous (human (endogenous in myoblasts and myotubes from human muscle biopsies)) (UniProt P60709)
Assay: co-IP

“STIM1L (long splice variant of stromal interaction molecule 1), endogenous (from UniProt Q13586-2 23-540) (natural protein)” showed a percent of input immunoprecipitated of 87%.
